B1: Twister Ribozyme (parent)
chain: AACACUGCCAAUGCCGGUCCCAAGCCCGGAUAAAAGUGGAGGGGGCGG

Variants of: B1
Test: self-cleavage, relative activity (ratio to wild type); higher = more cleavage; co-transcriptional
AACACUGCCAAUGCCCGUCCCAAGGCCGGAUAAAAGUGGAGGGGGCGG gave a self-cleavage of 0.0947. Variant AACACUGCCAAUGCCGGUCCCAAACCCGGAUGAAAGUGGAGGGGGCGG has a self-cleavage of 0.11. Work on AACACUUCCAAUGCCGGUCCCACGCCCGGAUAAAAGUGGAGGGGGCGG yielded a self-cleavage of 0.0594. With AACGCUGCCAAUGCCGGUCCCAAGCCCGGAUAAAACUGGAGGGGGCGG the self-cleavage was 0.182. Work on AACACUGCCAACGCCGGUGCCAAGCCCGGAUAAAAGUGGAGGGGGCGG yielded a self-cleavage of 0.428. AACACUGCCAAUGCCGGUCCCAAGCCCGGCUAACAGUGGAGGGGGCGG gave a self-cleavage of 0.0893. AGCACUGCCAAUGCCGGUCCCAAGCCCGGAUAAAAGUCGAGGGGGCGG showed a self-cleavage of 0.118. With AACACCGCCAAUGCCGGUCCCAAGCCCGGAUAACAGUGGAGGGGGCGG the self-cleavage was 0.18. Work on AACACUGCCAAUGCCGGUCCCUAGCCCGGAUAAAAGUUGAGGGGGCGG yielded a self-cleavage of 0.353. Work on AACACUGCCAAUGCCGGUCCCAAGCCCGGACAAAAGUGGAGGGCGCGG yielded a self-cleavage of 0.976. AACACUGCCAUUGCCGGUCCCAAGCCCGGAUAAAAGUGGAGAGGGCGG showed a self-cleavage of 0.557. With CACAUUGCCAAUGCCGGUCCCAAGCCCGGAUAAAAGUGGAGGGGGCGG the self-cleavage was 0.277. AGCACUGCCAAUGCCGGUCCCAAGCCCGGAUAAAGGUGGAGGGGGCGG showed a self-cleavage of 0.226. For AACACUGCCAAUGCCGGUCCAAAGCCCGGAUAAAAGUGGAGGGGGAGG, the self-cleavage was 0.0995. Variant AACACUGCCAAUGCCGGUCCCAAGCCCGGUUAAAAGUGGAGGGGGCUG has a self-cleavage of 0.954. AACACUGCCAAUGCCGUUCCCAGGCCCGGAUAAAAGUGGAGGGGGCGG showed a self-cleavage of 0.0937. In the case of AACACUGCCAAUGCCGGUGCCAAGCCCGGAUAAAAGUAGAGGGGGCGG, the self-cleavage is reported as 0.132. For AACACUGCCAAUGCCGGUCCCCAGCCCGGAUAAAAGUGGAGGGGCCGG, the self-cleavage was 0.491. AACACUGCCAAUGUCGGUUCCAAGCCCGGAUAAAAGUGGAGGGGGCGG showed a self-cleavage of 1.14. AACACUGCCAAUGCCGGUCACAAGCCCGGAUAAAAGUGGAGGGUGCGG showed a self-cleavage of 0.107. UACACUGCCAAUGCAGGUCCCAAGCCCGGAUAAAAGUGGAGGGGGCGG gave a self-cleavage of 0.0603. Work on AACACUGCCAAUGCCGGUCCCCAGCCCGGAUAAGAGUGGAGGGGGCGG yielded a self-cleavage of 0.912. With UACACUGCCAAUGCCGGUCCCAAGCCCGGAUAAAAGUGGAGGGGGCGU the self-cleavage was 0.0644. AACACUGCCAAUGCCGGUCCCAAGCGCGGAUACAAGUGGAGGGGGCGG gave a self-cleavage of 0.129. Work on AACACUGCCAAUGCCGGUCCCAAGCCCAGAUAACAGUGGAGGGGGCGG yielded a self-cleavage of 0.175. Variant AACACCUCCAAUGCCGGUCCCAAGCCCGGAUAAAAGUGGAGGGGGCGG has a self-cleavage of 0.0403. Variant AACACUGCCUAUGCCGGUCCCAACCCCGGAUAAAAGUGGAGGGGGCGG has a self-cleavage of 0.0965. AACACUGCCAAUGCCGGUCCCAAGCCCGGAUAGACGUGGAGGGGGCGG gave a self-cleavage of 0.858. AACACUGCCAACGCCCGUCCCAAGCCCGGAUAAAAGUGGAGGGGGCGG showed a self-cleavage of 0.482. Variant AACACGGCCAAUGACGGUCCCAAGCCCGGAUAAAAGUGGAGGGGGCGG has a self-cleavage of 0.313. Variant AACACUGCCAACGCCGGUCCCAAGACCGGAUAAAAGUGGAGGGGGCGG has a self-cleavage of 0.122. Variant AACACUGCCAAUGCCGGGCCCAAGCCCGGAUAAAAGUGGAGGGCGCGG has a self-cleavage of 0.0756. AACACUGCCACAGCCGGUCCCAAGCCCGGAUAAAAGUGGAGGGGGCGG gave a self-cleavage of 0.907. Work on AACACUUCCAAUGCCGGUCCCAAGCCCGGACAAAAGUGGAGGGGGCGG yielded a self-cleavage of 0.111. Work on AACACCGCCAAUGCCGGUCCCAAGCCCGGAUAAAAGUGGAGGGUGCGG yielded a self-cleavage of 0.502. In the case of AACACUGCCUAUGCCAGUCCCAAGCCCGGAUAAAAGUGGAGGGGGCGG, the self-cleavage is reported as 0.89. In the case of AACACUGCCAAUGCCGGUCCCAAGCUCGGAUAAAAGUGGAGGGGGCGA, the self-cleavage is reported as 0.185. Variant AACACUGCCAAUGCCGGUCCCAAGCCCGGUUAAAAUUGGAGGGGGCGG has a self-cleavage of 0.294. Work on AACACUGCCAAUGCCGGUCCCAAGCCCGGAUAAAAGUGGAGGGGACAG yielded a self-cleavage of 0.71. AACACUCCCAAUGCCGGUCCCAAGCCCGGAUAAAAGUGGAAGGGGCGG gave a self-cleavage of 0.0519. With AACACUGCCAAUGCCGGUCCCUACCCCGGAUAAAAGUGGAGGGGGCGG the self-cleavage was 0.0864. Variant AACACUGCCAAUGCCGGUCUCAAGCCCGGAUAAAAGUCGAGGGGGCGG has a self-cleavage of 0.841. With AACACUGUCAAUGCCGGUCCCAAGCCCGGAUAAAUGUGGAGGGGGCGG the self-cleavage was 0.756. Variant AACACUGUCAAUGCCGGUCCCAAGCCCGGAUAAACGUGGAGGGGGCGG has a self-cleavage of 0.547. Work on AUCACUGCCAAUGCCGGUCCCAAGCCCGGAUAAAAGUAGAGGGGGCGG yielded a self-cleavage of 0.789. AACACUGCCAAUGCCAGUCCCAAGCCCGGAUAAAAUUGGAGGGGGCGG gave a self-cleavage of 0.174. Variant AACACUGCCAAUGGCGGUCCCUAGCCCGGAUAAAAGUGGAGGGGGCGG has a self-cleavage of 0.128. Work on AACACAGCCAAUGCCGGUCCCAAGCCCGGAUAAAAGUGGGGGGGGCGG yielded a self-cleavage of 0.178. Variant AACACUGCCAAUGCCGGUCCCAAGCCCGGAUAAAAGUGAAGGGGACGG has a self-cleavage of 0.418. With AACACUGCCAAUGCCGGUCCCAAGCCCGUAUAGAAGUGGAGGGGGCGG the self-cleavage was 0.747. For AAAACUGCCAAUGCCGGUCCCACGCCCGGAUAAAAGUGGAGGGGGCGG, the self-cleavage was 0.0997. With AACACUGCCAAUGCCGUUCCCAAGCCAGGAUAAAAGUGGAGGGGGCGG the self-cleavage was 0.148. AACACUGCCAAUGCCGGUCCCAAGCCCGGAUAAAUGUUGAGGGGGCGG gave a self-cleavage of 0.942. Variant AACACUGCCAAUGCCGGUCCCAAGCCCGGAAAAAAGUGUAGGGGGCGG has a self-cleavage of 0.168.
